Assay: purified protein yield per well (BCA); higher = higher soluble expression
In short: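 Each candidate enzyme was grown in E. coli C41(DE3) in a 2 mL autoinduction culture (100 µg/mL kanamycin; 2 h at 37 °C, then 40 h at 18 °C) and purified robotically via Ni-charged magnetic beads with SUMO protease cleavage. Purified protein yield per well was assessed using the Pierce Rapid Gold BCA kit. Readings below 25 ug (0.1 mg/mL) are beneath the detection threshold.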

| Sequence | purified protein yield per well |
| --- | --- |
| ATVACSDCSNGFQRGTLPRVDQLESSRGPYSVKTSNVSVFARGFGGGTIHYSTDSGGQQGIIAVIPGYVSYESSIKWWGPRLASWGFTVITINTNTIYDQPNSRANQLSAAIDYVIDKGNDRSSPIYGLVDPERVGVIGWSMGGGGTLKLATDRDIDAIIPQAPWYSGLNSFSRITTPTMVIACQADAVAPVALHASIFYNQIPRSTPKAFFEIAAGSHFCGNSGYPNEDILGRNGVAWMKRFIDNDTRYNQFLCGQNFDRSLRVSDYKDTCNTY [DP094] | < 25 µg |
| ATVTPIRMETRIRTSSFTRFTSTPTACAFDSPIAKAFSSVRSRIDASRLAVAGHSMGGGGTLEAAKDRPGLRAAVPLAPWNTTKNWSGNRVPTLIIGGQSDTIAAVSSHAVPFYTSLPTTPDKAYLELAGASHFFPQSANADVAMMFVSWLKRFVDGDTRYEQFLCPGPSVSGSVSRYSSTCPLASGPTPTSTTTATTGTSTTRTTTTSSGGSGGGACSASYATSNAWQGGFVGTVTVRADLALSGWQVTLALPAGTTITGSWNGVRSGSTGTVQVRNETYNGILASGQTTSFGFQGSGSPSGLTVTSCTAN [ESM108] | < 25 µg |
| AVQNGPAPTSTSVNAAGTYATASSAVAASASLGFGGGTIYYPTAAGTYGVIALCPGFTATQTSVAWLAQRLATHGFVTLAMNTNNPLLDSPSSRGIQLRAAIAYLTGSSAPAAVKAHVDATRRAVYGHSMGGGGVLYALTSDKTLKAGFPMAPYNTATTSFPTITSATMILTGTGDTTAPPSTYGLPMYNSLPVTTQKAYALLTGAGHS [TEP161] | < 25 µg |
| CAAQAQTSPPTSASLNATAGPLSVSTSSVSSWAARGFGGGTIYYPNATGRYGVVAISPGYTARQSSIAWLGRRLATHGFVVITIDTNSTLDQPPSRATQLMAALNHVVNNANATVRSRVDASKLAVAGHSMGGGGSLIAAENNPSLKAAYPLTPWSVSKNYSSVRVPTMIIGADGDSIASVSTHSRLFYNSLSSNVSKAYGELNNASHFTPNYTNTPIGRYAVTWMKRFVDNDTRYSPFLCGAPHDSYATRTVFDRYEDNCAY [ESM071] | < 25 µg |
| CADRPPVQDEDPAPTAASLAAPLGPYRTSTATVPRGLTEAFGGGTIYYPSGRPRGDTFGGVIIAPGRNGNQGGMAWYGPLLASRGFVVFAIDTLHLKDRPAARAHELEAAMTYLTVRSPVATLVDADRLAVMGHSFGGGAALETAADRPTLRAAIPLMPYDKGREFSNVRVPTLVVAAQNDKIAPVSRHARRFYRSIPASSGKGYLEIAGTTHSSPKKPNTTLAAYVIAWLKRYVDGDERYERFLCPGPIDDPSVALYRNPCS [TEP060] | < 25 µg |
| CASVASPPAATLAALSGNGSYEVMTYTDFPDVPEFGDATIYYPQDAPAPVGGVAIAPGFTEVQSHISWWGPRLASHGFAVLVLDTNDRRDRPDLRADALIAAVTLLRAENSRSGSPLNSRIDVGKMAIMGHSMGGGGVLLAANEHSDQIQAAIPFTPWVPDVEFGNITVPTLVIAGSADRIANVTDHAWRHF [TEP113] | < 25 µg |
| CATAGSTTDSAPVSAASLSVDGAYEVRTYSDFPDVPEFGAATIYYPVGVPQPIGGVAIAPGFTEEQRHISWWGPRLASHGYAVLVLDTNERRERPDARASALIAGVTLLRAEGLRQGSPLFGGIDLAKMAIMGHSMGGGGALLAANEHSDQIRAAIPFTPWEPETNLGGVSAPTLVLAGAADGIAEVDEHAWRHFSMIPESTPKVYLEIAGGDHYIADTTRGTDLATVGRYAIAWLKLYVDRDERYRDFIYGE [TEP065] | < 25 µg |
| CDSILFQSIASPGPYNVLSIDESDGIRNGQDYNGATIFYPEGNLYNLPSIVFVPGYSNTQFTIQNWGLFLASYGIVTMTIGTNTLIDSHIQRKDALLDALITIKQENVRSSSPLYNSLDTLKLALGGFSKGGGGAQLAASIGQNIKAVIALYPWLENISAVDLNHDVPVLIVSGNLDIIAPPSLHADVHYMYTPETTKKLKYEIAFATHDPLIGPNAGFGEVGKKTLSWLQTFLLGDSCFCPYLLDTPSNASIYMSNLNCTEISTNTYNLESNQEKKILKIIDIFGREVRPKKNMILFYIYNDQSVKKIIIK [TEP139] | < 25 µg |
| CDSILSQSLTNTGPYNVLSINESDGIRNGQHYNGATIFYPEGNLTNLASMVFVPGYSNTQLSIQNWGFFLASHGIVTMTIGTNSLLDSHIKRKDALLDALVTVKQENVRVSSPLYNSLDTLKLALGGFSKGGGGAQLAASVGQNIKAIIALYPWLENISSSDLNHNVPVLIVSGSLDIIAPPSLHADVHYMYTPQTTNKLKYELAFGTHDPLTGPNAGSGEVGKKTLSWLQTFLLSDTCFCPYLLDTPNNASIYMSNLNCTEIGTNTNNLQSNTEKKLVKIIDVFGREVSPKKNMILFYVYDNQSVKKIIIK [TEP094] | < 25 µg |
| CESRRGPDPTRVSVESTAGPFAIATTTVSSGNGFGGGTIYYPTSTAEGRFGGVAIAPGFTKTQSSIAWYGPRLASQGFVVFTIDTNSGLDFPASRGDQLLAALDFLTSSSSVKSRVDANRLAVMGWSMGGGGALEAAKDRPALKAAIPLAGWNTTTEWSSVTVPTLVVACENDSTAPVASHSRPFYDSLTSAQERAFVEMAGAPHGCVTSPTTAVARWTISWLKRFVDGDTRYTQFLCPPPADSTVSTQLTSCPM [TEP177] | < 25 µg |
| CGDRDAGDPAPTESSLTAPLGPEKYRTEVVPRAYVEAFGGGTIYYPAGRPPGERLGAVTIVPGSRGYQSGMAWYGPLLASRGFIVFTIDTLHLKDQPAKRSLELEAALTYLATRSAVASHVDAERLAVMGHSLGGGGTLDLAATRPNLKAAIPLMPYDKAKDFSNVRVPTLVVAAQHDKIAPVGKHAEVFYRSIPASQPKAYLEIAGATHSFPKRRDATLAKYVIAWLKRYVDGDKRYDRFLCPGPQNDPHVARYASDCTPR [DP095] | < 25 µg |
| CGLCKAQTCDTLTLDSIYDPGAYSFATLLESDGIRNGPDYAGATIYYPTNGIPPYPAIAICPGHSTFEYTIQAWGPFYASHGIVTITIGTNSIYDYPDARKNAILDALETVRQENVRSGSPLFGYLDLSRLAVSGWSMGGGGAQLAAAADTTIKAVVGLCPWLESWRTAADLNHPVPTLILSGQIDAIAPPYYHADVHYGYIP [TEP133] | < 25 µg |
| CGTTTSTLTTPAVTPQTLSGAATNPYERGPAPTTALLEAARGPYATASTTVPRSSVSDFGGATIYYPTSTADGTFGGVAISPGYTGTQASVAWLGPRLASHGFVVIVIDTLSRYDYPSSRGDQLRAALRYLTTSSAVRTRVDATRLAVMGHSMGGGGALEAAKDNPALKAAIPLTPWNTDKSWPELTTPTLIFGAQNDSVAPVSSHAIPFYTSLASTLPKAYLELRGASHGAPTSTNTTIAKYAVAWLKRFEDADRRYDPFLCPTPAVSTLLSDARSTCPFN [DP069] | < 25 µg |
| CSEEPHKAGGPWAGPYEVVTQQVSADDADGGFGDGTVRYPDDGSRDYGVIAASPGLGADESTVAPYGELLASHGFVVITIDTKTPEDSPAQRGRQLLRALDYATERSDAADRADPRRLGVLGHSMGGGGALYAAARNPHIRAAVPLTPYATRRDWHRVEAPTLVVGGSDDEVAPVSEYADAFYEGLSGAREKAYLELKGDHFVATPPDGLVSRQVVAWFGHFLAGAPGSPCPLPSGDGVTESRDTCPFGTRGR [TEP179] | 25.7 µg |
| CSGSTPTAPAAPAPKATAAPNDRPAPTAQVPRSFERGPAPSEKSVTAKRGPFAFEKIEVPAGSGPGFNKGTIYAPTDTSRGTFGAVVMSPGFASPHTWIDWYGPRLASQGFVVMMLETNTLFDVPLLRGRQIVAALDYLTARSVVRGRVDPSRTAVMGHSMGGGGTLEAARQRPGLKAAVPLAPWNPDYNWGGVVVPTMIIGAQRDVIAPTALMSEAYYNRLTAAPEKAYLVLRGAGHLTFMSPNATIAKYVISWMKRFVDNDSRYDRFLCPPPKPRGLLTVYRGTCPTG [DP037] | < 25 µg |
| CTWRGPNPPPATLDAPMGPFTTTSSVVTTSPGFGDGTMYYPDTEPGPFGVVAVAPGWLASQNSLDTLGNRIASHGFVVITIDVNRPRSDGPQSRADQLLAALDQVANEAAVAGIADNTRQAVMGHSMGGGGALYASIDRPALKASIPLAPWARGADFSAVTVPTMIIGCEDDTVAPVGSHAIAFYDAIANTVPKAYAEIADASHSCVNDFNTDPLETAEVASSAVSFLKRFVDNDSRYTPFLCPIPELDPPLSDRRATCPYN [TEP148] | < 25 µg |
| CVFPPAPPPPGSGYTITTVAAGNGFGGGTIYLPEGVTGRRGAVAVVPGFTGTQSTVAWYGPLLAKEGYVVFTIDTNSGWDSPQARGTQLLAALDYLTTQSSAASRVDPARLAVMGHSMGGGGSLEAAKARPSLKAAIPLAGWNSVTNFSTVTVPTLVVA [TEP070] | < 25 µg |
| DANPYQRGPAPTESSVAAEKGPFAVAQTDVPAGSGQGFNDGTIYYPTDTSQGTFGAVVVMPGFVSPQEWIRWYGPLLASQGFVVMTLDSNTLLDFPGARGDQILAALDYLTTKSKVVDRIDTGRLAVMGWSMGGGGTLEAAAERPSLKADIALAPWDLDNVAAKVKVPSMIIADDTDILAPTGVFAKPFYDAMSTAPDKAFFELKSANHFTFTSYNKTIAKYAVSWLKRFVDDDTRYDQFLCPKPAPSNEITQFEETCPLG [TEP059] | < 25 µg |
| DEIGQAPTAANITGDGSFSTSSSAIFGQSGFGGGTAYYPNTAGKYPVVAFAPGFLSDWNALNWLGPRVASWGFVVVGVNTNTPFDFPDARGDQLLAALNWAVNSAPAAVRDKADGSRRGVSGWSMGGGGTLEALAKDTTGTVKAGVPLAPWHTNKTWSKVTEPVFIIGGQNDSVAAPASHAIPFYNSLGGPKSYLERAGADHFFPTKSNGTVSRAVVSFFKRHVSADTRFTPFLCGFSGLDVSNFRSNSC [ESM030] | < 25 µg |
| DEIGQAPTAANITGNGSFAVTSAAVTGASGFGGGTVYYPTTAGTYPVVAIAPGFTQAWSAIQWLGPRLSSWGFVVVGINTNSSLDFPASRGTQLLAALNWAVASAPAAVTSRADGTRRGVAGYSMGGGGTLEALSQDTTGAVKAGVPMAPWHTDTTWQQVTEPVFILGGQNDSTAPVASHAKPMYNSLGGPKTYVELAGAPHSFPRTDNATTSRALVSWFKRWLNGDARFTPFTCGFTGTAISAYQTTAC [ESM099] | < 25 µg |
| DEIGQAPTPSNITGSGSFSTTSSTITGQSGFGGGTVYYPTASGKYPVVAMVPGFLSDWSSISWLGPRVASWGFVVVGANTNSGLDDPTSRGDQLLAALNWAVNSSPTAVRGKTDGTRRGVAGWSMGGGGTLEALAKDTSGVVKAGVPLAPWHNDKSWNQVNEPVFLIGGENDGVASPDSHAIPFYNSLGGPKSFLERAGANHFFPNSSDPTVSRAVVSFLKRHVSADNRFSPYVCGFSGSAVSDFRSNSC [ESM133] | < 25 µg |
| DEIGQAPTSSNITGNGSFSVSTYNISSLVSGFGGGVAYYPTTSGRYPVVAVSPGFTARWSSISWIGPRLASWGFVVVGIETNGLYDQPASRGSQLLAALNWAVNSAPSAITSRADGSRRGVAGHSMGGGGTLEALAADTTGNVKAGVPIAPWNSDKTWSGINEAVQIVGGESDTIASVGSHSIPFYNSVSGPKSYVELNGASHFFPQSTNSTLSRALVSWFKRYLNQDARFTPFTCGYGGTAVSDFRTNAC [ESM151] | < 25 µg |

— the supplement of paper PMC12455559
